The Immune Epitope Database (IEDB)
pIC50: −log10 of the molar value.

Key:
Assay in all cases: IEDB peptide-MHC binding, purified MHC/competitive/radioactivity; ≥ and ≤ were set here for values at or beyond the usual limits of such assays
HLA-A*02:01 = molecular target: HLA-A*02:01
HLA-A*02:02 = molecular target: HLA-A*02:02
HLA-A*02:03 = molecular target: HLA-A*02:03
HLA-A*02:06 = molecular target: HLA-A*02:06
HLA-A*68:02 = molecular target: HLA-A*68:02
[1] = source organism: Vaccinia virus WR
[2] = source organism: Influenza A virus
[3] = source organism: Hepacivirus hominis

Sequence | pIC50 (HLA-A*02:01; [1]) | pIC50 (HLA-A*02:02; [1]) | pIC50 (HLA-A*02:03; [1]) | pIC50 (HLA-A*02:06; [1]) | pIC50 (HLA-A*68:02; [1]) | further results
GLSDRVVFV | – | – | – | – | – | pIC50 (HLA-A*02:01; source organism: SARS-CoV1): 8.51; pIC50 (HLA-A*02:02; source organism: SARS-CoV1): 9.00; pIC50 (HLA-A*02:03; source organism: SARS-CoV1): 8.96; pIC50 (HLA-A*02:06; source organism: SARS-CoV1): 7.16; pIC50 (HLA-A*68:02; source organism: SARS-CoV1): 5.93
TIDAINKCV | 6.11 | 7.05 | 6.20 | 6.39 | 6.65 | –
TLVKSGLTEV | 8.04 | 7.19 | 8.54 | 7.35 | 5.64 | –
VNNAVVMPA | – | – | – | – | – | pIC50 (HLA-A*02:01; [2]): 6.33; pIC50 (HLA-A*02:02; [2]): 6.64; pIC50 (HLA-A*02:03; [2]): 6.15; pIC50 (HLA-A*02:06; [2]): 6.08; pIC50 (HLA-A*68:02; [2]): 5.72
KIMEIVSHL | 7.12 | 7.10 | 8.00 | 7.52 | 5.97 | –
LLFQLCTFT | – | – | – | – | – | pIC50 (HLA-A*02:01; source organism: SARS-CoV1): 6.08; pIC50 (HLA-A*02:02; source organism: SARS-CoV1): 7.66; pIC50 (HLA-A*02:03; source organism: SARS-CoV1): 8.42; pIC50 (HLA-A*02:06; source organism: SARS-CoV1): 7.96; pIC50 (HLA-A*68:02; source organism: SARS-CoV1): 6.07
VLIAGIILLI | 7.05 | 8.06 | 7.46 | 5.99 | 7.48 | –
FTILEYLYI | 7.17 | 5.81 | 6.77 | 6.57 | 7.66 | –
MQIRGFVYFV | – | – | – | – | – | pIC50 (HLA-A*02:01; [2]): 7.82; pIC50 (HLA-A*02:02; [2]): 7.72; pIC50 (HLA-A*02:03; [2]): 8.44; pIC50 (HLA-A*02:06; [2]): 8.00; pIC50 (HLA-A*68:02; [2]): 7.60
YLYNKYSFKL | 10.11 | 9.96 | 10.46 | 9.85 | 8.32 | –
ALKAYFTAKI | 5.80 | 6.71 | 7.11 | 5.56 | 5.39 | –
IVYGRSNAIL | 6.14 | 7.04 | 7.48 | 6.37 | 6.19 | –
MVDVSMMSM | 6.70 | 6.25 | 5.93 | 7.00 | 6.28 | –
VISVIFYFI | 6.48 | 8.85 | 6.14 | 6.30 | 8.12 | –
LLSCISVPV | – | – | – | – | – | pIC50 (HLA-A*02:01; [3]): 8.60; pIC50 (HLA-A*02:02; [3]): 8.85; pIC50 (HLA-A*02:03; [3]): 8.33; pIC50 (HLA-A*02:06; [3]): 7.77; pIC50 (HLA-A*68:02; [3]): 7.82
WLVIGVAFL | – | – | – | – | – | pIC50 (HLA-A*02:01; source organism: SARS-CoV1): 7.46; pIC50 (HLA-A*02:02; source organism: SARS-CoV1): 8.59; pIC50 (HLA-A*02:03; source organism: SARS-CoV1): 9.03; pIC50 (HLA-A*02:06; source organism: SARS-CoV1): 6.74; pIC50 (HLA-A*68:02; source organism: SARS-CoV1): 6.90
LVASSGTLEFI | – | – | – | – | – | pIC50 (HLA-A*02:01; [2]): 5.43; pIC50 (HLA-A*02:02; [2]): 6.82; pIC50 (HLA-A*02:03; [2]): 6.16; pIC50 (HLA-A*02:06; [2]): 6.52; pIC50 (HLA-A*68:02; [2]): 6.70
NLYKVYNGI | 6.35 | 6.39 | 7.21 | 6.09 | 5.79 | –
STSPTRTWKV | 6.13 | 6.40 | 6.14 | 6.30 | 6.88 | –
SLMAFTASI | – | – | – | – | – | pIC50 (HLA-A*02:01; [3]): 6.97; pIC50 (HLA-A*02:02; [3]): 7.72; pIC50 (HLA-A*02:03; [3]): 7.40; pIC50 (HLA-A*02:06; [3]): 6.13; pIC50 (HLA-A*68:02; [3]): 6.55
ILYYGANGST | 6.54 | 6.47 | 7.41 | 5.74 | 5.42 | –
RTNDLTALL | 6.45 | 8.43 | 8.14 | 6.92 | 7.89 | –
DINESMSQMV | 6.80 | 6.51 | 6.31 | 5.38 | 5.68 | –
SLVITYCLV | 6.76 | 5.77 | 6.70 | 6.57 | 5.86 | –
AADLTQIFEV | 7.77 | 5.91 | 6.39 | 7.96 | 5.36 | –
NLLLLFVTI | – | – | – | – | – | pIC50 (HLA-A*02:01; source organism: SARS-CoV1): 6.70; pIC50 (HLA-A*02:02; source organism: SARS-CoV1): 6.36; pIC50 (HLA-A*02:03; source organism: SARS-CoV1): 5.80; pIC50 (HLA-A*02:06; source organism: SARS-CoV1): 6.34; pIC50 (HLA-A*68:02; source organism: SARS-CoV1): 6.12
YASLTTIGT | 6.06 | 6.39 | 6.84 | 6.79 | 7.28 | –
